# Test results reported in IntAct's records for PubMed 25910212.
# B1: Cyclin-dependent kinase 4 inhibitor C (Homo sapiens), P42773 (parent)
# chain: MAEPWGNELASAAARGDLEQLTSLLQNNVNVNAQNGFGRTALQVMKLGNPEIARRLLLRGANPDLKDRTGFAVIHDAARAGFLDTLQTLLEFQADVNIEDNEGNLPLHLAAKEGHLRVVEFLVKHTASNVGHRNHKGDTACDLARLYGRNEVVSLMQANGAGGATNLQ
# partner: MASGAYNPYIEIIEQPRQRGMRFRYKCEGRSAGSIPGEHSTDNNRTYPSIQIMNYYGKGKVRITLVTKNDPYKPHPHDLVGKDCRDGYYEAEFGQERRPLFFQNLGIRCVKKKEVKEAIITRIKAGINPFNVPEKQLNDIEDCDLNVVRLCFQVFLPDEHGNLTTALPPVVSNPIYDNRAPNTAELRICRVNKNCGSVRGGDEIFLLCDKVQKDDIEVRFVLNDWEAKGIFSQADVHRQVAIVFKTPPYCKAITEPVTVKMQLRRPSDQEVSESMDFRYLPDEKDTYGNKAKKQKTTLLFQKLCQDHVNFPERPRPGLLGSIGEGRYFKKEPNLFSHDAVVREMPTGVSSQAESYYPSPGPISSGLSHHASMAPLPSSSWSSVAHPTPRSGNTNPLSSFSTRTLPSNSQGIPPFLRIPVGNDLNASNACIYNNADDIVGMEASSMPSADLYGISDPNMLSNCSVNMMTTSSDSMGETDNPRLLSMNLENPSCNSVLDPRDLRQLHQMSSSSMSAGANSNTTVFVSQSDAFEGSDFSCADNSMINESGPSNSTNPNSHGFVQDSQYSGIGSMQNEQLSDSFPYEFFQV
# B2: Keratin, type II cytoskeletal 6A (Homo sapiens), P02538 (parent)
# chain: MASTSTTIRSHSSSRRGFSANSARLPGVSRSGFSSVSVSRSRGSGGLGGACGGAGFGSRSLYGLGGSKRISIGGGSCAISGGYGSRAGGSYGFGGAGSGFGFGGGAGIGFGLGGGAGLAGGFGGPGFPVCPPGGIQEVTVNQSLLTPLNLQIDPTIQRVRAEEREQIKTLNNKFASFIDKVRFLEQQNKVLETKWTLLQEQGTKTVRQNLEPLFEQYINNLRRQLDSIVGERGRLDSELRGMQDLVEDFKNKYEDEINKRTAAENEFVTLKKDVDAAYMNKVELQAKADTLTDEINFLRALYDAELSQMQTHISDTSVVLSMDNNRNLDLDSIIAEVKAQYEEIAQRSRAEAESWYQTKYEELQVTAGRHGDDLRNTKQEIAEINRMIQRLRSEIDHVKKQCANLQAAIADAEQRGEMALKDAKNKLEGLEDALQKAKQDLARLLKEYQELMNVKLALDVEIATYRKLLEGEECRLNGEGVGQVNISVVQSTVSSGYGGASGVGSGLGLGGGSSYSYGSGLGVGGGFSSSSGRAIGGGLSSVGGGSSTIKYTTTSSSSRKSYKH
# partner: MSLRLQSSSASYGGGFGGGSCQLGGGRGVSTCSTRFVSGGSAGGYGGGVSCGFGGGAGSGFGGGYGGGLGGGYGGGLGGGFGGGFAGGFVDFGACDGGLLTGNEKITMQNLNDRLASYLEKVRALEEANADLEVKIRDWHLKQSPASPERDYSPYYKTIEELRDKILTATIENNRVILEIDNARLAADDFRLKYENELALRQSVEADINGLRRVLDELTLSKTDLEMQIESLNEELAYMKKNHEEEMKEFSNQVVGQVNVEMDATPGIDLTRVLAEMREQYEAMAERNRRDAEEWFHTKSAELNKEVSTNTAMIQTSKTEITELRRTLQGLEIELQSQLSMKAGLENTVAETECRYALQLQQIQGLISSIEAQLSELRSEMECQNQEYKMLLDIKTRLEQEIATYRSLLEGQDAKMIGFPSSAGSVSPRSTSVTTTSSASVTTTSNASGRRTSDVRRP
# B3: Ketohexokinase (Homo sapiens), P50053-2 (parent)
# chain: MEEKQILCVGLVVLDVISLVDKYPKEDSEIRCLSQRWQRGGNASNSCTVLSLLGAPCAFMGSMAPGHVADFVLDDLRRYSVDLRYTVFQTTGSVPIATVIINEASGSRTILYYDRSLPDVSATDFEKVDLTQFKWIHIEGRNASEQVKMLQRIDAHNTRQPPEQKIRVSVEVEKPREELFQLFGYGDVVFVSKDVAKHLGFQSAEEALRGLYGRVRKGAVLVCAWAEEGADALGPDGKLLHSDAFPPPRVVDTLGAGDTFNASVIFSLSQGRSVQEALRFGCQVAGKKCGLQGFDGIV
# partner: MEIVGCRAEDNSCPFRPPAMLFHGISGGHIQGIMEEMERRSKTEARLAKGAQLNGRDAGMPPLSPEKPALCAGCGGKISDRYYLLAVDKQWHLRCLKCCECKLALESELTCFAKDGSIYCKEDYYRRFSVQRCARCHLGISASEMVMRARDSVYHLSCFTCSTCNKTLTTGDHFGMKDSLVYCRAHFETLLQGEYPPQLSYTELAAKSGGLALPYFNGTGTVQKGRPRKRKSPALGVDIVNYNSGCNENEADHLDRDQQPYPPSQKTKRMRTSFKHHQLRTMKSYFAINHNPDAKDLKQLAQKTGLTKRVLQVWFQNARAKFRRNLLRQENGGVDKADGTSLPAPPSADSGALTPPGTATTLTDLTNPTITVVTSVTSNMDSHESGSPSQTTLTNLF
# B4: Phakinin (Homo sapiens), Q13515 (parent)
# chain: MSERRVVVDLPTSASSSMPLQRRRASFRGPRSSSSLESPPASRTNAMSGLVRAPGVYVGTAPSGCIGGLGARVTRRALGISSVFLQGLRSSGLATVPAPGLERDHGAVEDLGGCLVEYMAKVHALEQVSQELETQLRMHLESKATRSGNWGALRASWASSCQQVGEAVLENARLMLQTETIQAGADDFKERYENEQPFRKAAEEEINSLYKVIDEANLTKMDLESQIESLKEELGSLSRNYEEDVKLLHKQLAGCELEQMDAPIGTGLDDILETIRIQWERDVEKNRVEAGALLQAKQQAEVAHMSQTQEEKLAAALRVELHNTSCQVQSLQAETESLRALKRGLENTLHDAKHWHDMELQNLGAVVGRLEAELREIRAEAEQQQQERAHLLARKCQLQKDVASYHALLDREESG
# B5: Emerin (Homo sapiens), P50402 (parent)
# chain: MDNYADLSDTELTTLLRRYNIPHGPVVGSTRRLYEKKIFEYETQRRRLSPPSSSAASSYSFSDLNSTRGDADMYDLPKKEDALLYQSKGYNDDYYEESYFTTRTYGEPESAGPSRAVRQSVTSFPDADAFHHQVHDDDLLSSSEEECKDRERPMYGRDSAYQSITHYRPVSASRSSLDLSYYPTSSSTSFMSSSSSSSSWLTRRAIRPENRAPGAGLGQDRQVPLWGQLLLFLVFVIVLFFIYHFMQAEEGNPF
# partner: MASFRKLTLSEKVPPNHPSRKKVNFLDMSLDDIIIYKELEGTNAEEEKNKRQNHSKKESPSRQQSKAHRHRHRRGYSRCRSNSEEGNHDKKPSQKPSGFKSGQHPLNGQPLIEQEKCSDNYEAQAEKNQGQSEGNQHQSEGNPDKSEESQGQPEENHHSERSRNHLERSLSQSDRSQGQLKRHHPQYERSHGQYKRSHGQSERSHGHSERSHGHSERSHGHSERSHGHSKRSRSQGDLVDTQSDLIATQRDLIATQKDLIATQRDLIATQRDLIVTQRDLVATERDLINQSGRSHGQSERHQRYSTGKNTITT
# B6: Emerin (Homo sapiens), P50402 (parent)
# chain: B5 chain
# partner: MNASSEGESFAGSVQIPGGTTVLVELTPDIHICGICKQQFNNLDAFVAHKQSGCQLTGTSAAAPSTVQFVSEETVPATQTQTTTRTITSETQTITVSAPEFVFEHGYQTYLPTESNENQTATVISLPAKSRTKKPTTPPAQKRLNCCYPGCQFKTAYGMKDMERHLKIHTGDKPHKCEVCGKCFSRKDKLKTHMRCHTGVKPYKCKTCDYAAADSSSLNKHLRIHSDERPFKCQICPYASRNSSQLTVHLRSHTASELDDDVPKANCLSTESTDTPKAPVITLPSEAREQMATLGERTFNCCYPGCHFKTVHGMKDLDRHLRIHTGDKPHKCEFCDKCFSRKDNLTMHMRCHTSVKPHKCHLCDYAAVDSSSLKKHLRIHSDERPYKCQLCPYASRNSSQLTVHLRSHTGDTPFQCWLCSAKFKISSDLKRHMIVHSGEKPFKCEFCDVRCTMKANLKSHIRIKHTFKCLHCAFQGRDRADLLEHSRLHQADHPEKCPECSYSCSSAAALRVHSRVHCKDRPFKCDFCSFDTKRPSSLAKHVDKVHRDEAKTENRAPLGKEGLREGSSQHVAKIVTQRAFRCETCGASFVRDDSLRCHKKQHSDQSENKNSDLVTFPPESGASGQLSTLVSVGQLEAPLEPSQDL
# Variants of: B1
# Conditions: with REL
row,effect of a mutation on the interaction,Variant
1,disrupting interaction strength,V31L

# Variants of: B2
# Conditions: with KRT13, P13646
row,Variant,effect of a mutation on the interaction
1,N21S,with no effect
2,T552S,with no effect
3,V523F,with no effect
4,F174V,with no effect
5,N171K,with no effect

# Now from value to variant:
row,effect of a mutation on the interaction,Variant
1,with no effect,F249L
2,with no effect,I462S
3,with no effect,A463P

# Variants of: B3
# Conditions: with lhx9_human LHX9, Q9NQ69
row,effect of a mutation on the interaction,Variant
1,with no effect,G40R
2,with no effect,A43T

# Variants of: B4
# Conditions: with atf4_human ATF4, P18848
# atf4_human ATF4, P18848, sequence (P18848 whole entry): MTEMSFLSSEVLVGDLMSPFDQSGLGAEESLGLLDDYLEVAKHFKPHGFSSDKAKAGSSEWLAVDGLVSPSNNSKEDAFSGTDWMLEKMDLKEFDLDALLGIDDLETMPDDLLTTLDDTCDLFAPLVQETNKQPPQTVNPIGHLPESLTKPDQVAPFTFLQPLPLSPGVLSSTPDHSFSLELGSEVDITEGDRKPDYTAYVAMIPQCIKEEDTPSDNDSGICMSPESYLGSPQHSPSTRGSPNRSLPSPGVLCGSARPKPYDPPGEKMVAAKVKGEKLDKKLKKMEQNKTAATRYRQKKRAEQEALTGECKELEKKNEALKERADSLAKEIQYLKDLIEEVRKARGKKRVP
row,effect of a mutation on the interaction,Variant
1,with no effect,R339H
2,with no effect,A407D

# Variants of: B4
# Conditions: with syce1_human SYCE1, Q8N0S2
# syce1_human SYCE1, Q8N0S2, sequence (Q8N0S2 whole entry): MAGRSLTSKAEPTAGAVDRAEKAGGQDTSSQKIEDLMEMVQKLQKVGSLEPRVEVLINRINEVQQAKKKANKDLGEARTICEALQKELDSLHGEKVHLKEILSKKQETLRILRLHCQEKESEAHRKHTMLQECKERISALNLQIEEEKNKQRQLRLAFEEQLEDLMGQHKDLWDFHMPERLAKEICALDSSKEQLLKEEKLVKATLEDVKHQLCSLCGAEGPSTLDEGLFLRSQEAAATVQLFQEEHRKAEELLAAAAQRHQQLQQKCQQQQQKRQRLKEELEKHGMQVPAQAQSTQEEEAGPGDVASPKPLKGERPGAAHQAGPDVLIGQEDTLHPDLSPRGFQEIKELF
row,effect of a mutation on the interaction,Variant
1,with no effect,R339H
2,with no effect,A407D

# Variants of: B5
# Conditions: with luzp4_human LUZP4, Q9P127
row,effect of a mutation on the interaction,Variant
1,with no effect,S54F
2,with no effect,D72V
3,with no effect,P183H
4,with no effect,P183T

# Variants of: B6
# Conditions: with zf64b_human ZFP64, Q9NTW7
row,effect of a mutation on the interaction,Variant
1,with no effect,P183T
